# In paper PMC8617759, “Characterization of a Novel L-Asparaginase from Mycobacterium gordonae with Acrylamide Mitigation Potential” (Foods, 2021):
# Tested on: NC(=O)C[C@H](N)C(=O)O
# Assay: Nessler ammonia assay, OD436; Lineweaver-Burk
# Assay type: biochemical, Mycobacterium gordonae
# Conditions: 50 mM PBS pH 8.0, 37 °C, 2 min, 1-20 mM substrate
substance,measurement,value
GmASNase (Mycobacterium gordonae L-asparaginase) (Mycobacterium gordonae),Km,6.025 mM
same,kcat,"11,864.71 min^-1"
